Measured values reported in publication doi:10.1101/2020.06.30.176701 (bioRxiv, 2020).
Read-outs that look alike come from different tables or passages of the source.

T1: archaeal ribosomal P-stalk complex aP0•(aP1•aP1)3 (Pyrococcus horikoshii, UniProt O74109 1-342; O57705 1-108)
T1 sequence (looked up) 1: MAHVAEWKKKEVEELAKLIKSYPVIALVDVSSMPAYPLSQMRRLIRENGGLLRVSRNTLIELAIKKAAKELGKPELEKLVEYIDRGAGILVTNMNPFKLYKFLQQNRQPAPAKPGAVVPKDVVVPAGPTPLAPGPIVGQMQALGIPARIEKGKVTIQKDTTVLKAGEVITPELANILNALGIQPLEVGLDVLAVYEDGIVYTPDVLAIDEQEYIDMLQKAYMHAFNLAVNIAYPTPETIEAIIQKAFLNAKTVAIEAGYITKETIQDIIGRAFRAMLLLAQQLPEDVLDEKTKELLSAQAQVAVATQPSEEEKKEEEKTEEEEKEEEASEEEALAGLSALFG
T1 sequence (looked up) 2: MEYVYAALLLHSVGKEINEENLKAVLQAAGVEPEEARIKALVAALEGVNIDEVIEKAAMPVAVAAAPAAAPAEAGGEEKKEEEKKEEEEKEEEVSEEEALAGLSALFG

B1: archaeal elongation factor 2 (aEF2) of Pyrococcus furiosus (natural protein, UniProt P61877 1-732, looked up)
chain: MGRREEMIAKIKELMLQPERIRNIGIAAHIDHGKTTLSDNLLAGAGMISEELAGKQLVLDFDEQEQARGITINAANVSMVHNYEGKDYLINLIDTPGHVDFGGDVTRAMRAIDGVIIVVDAVEGVMPQTETVVRQALREYVKPVLFINKVDRLIRELKLTPQQMMERFSKIIMDVNRLIQRYAPEEYKKKWMVRVEDGSVAFGSAYYNWALSVPFMQRTGVKFNEIIDLTLKGDNKTLRQRAPLHVVVLDMVVRHLPSPIEAQKYRIPHLWQGDINSKIGQAMLNCDPKGKMVMVITKIIIDKHAGEVATGRVWSGTVRSGQEVYLINSKRKGRIQQVGIYMGPERINMEAVPAGNIVAVTGLRDAMAGETVAEEQIEPFEALHYVSEPVVTVAIEAKNVKDLPRLIEALRQLAKEDPTLHVKIDEETGQHLLSGMGELHLEVKLYKLQKDWGIEVDVSEPIVVYRESITKPSPIVEGKSPNKHNRFYVVVEPMPDEIYQAIKEGIIPEGRVKDPKAVAKKLAELGMDYDIARGVVDIYNGNMFLDNTKGIQYLNEVMDLLIDGFHQAMDEGPLAKEPVMKVIVRLVDAQVHEDNVHRGPAQIYPAIRTAIHCAMMKAGPVLYEPYQKVIINIPYEYMGAVSREISQRRGQLIDMRQEGEVMTIIAEAPVAEMFGFAGAIRSATSGRALWSTEHAGFKRVPNELAQQIIRQIRQRKGLDPNPPTEKDVCPLF
B2: archaeal elongation factor 1A (aEF1A) of Pyrococcus furiosus (natural protein, UniProt Q8U152 1-428, looked up)
chain: MPKDKPHVNIVFIGHVDHGKSTTIGRLLYDTGNIPEQIIKKFEEMGEKGKSFKFAWVMDRLKEERERGITIDVAHTKFETPHRYITIIDAPGHRDFVKNMITGASQADAAVLVVAATDGVMPQTKEHAFLARTLGIKHIIVAINKMDMVNYNQKRFEEVKAQVEKLLKMLGYKDFPVIPISAWEGENVVKKSDKMPWYNGPTLIEALDQIPEPEKPVDKPLRIPIQDVYSIKGVGTVPVGRVETGKLRVGEVVIFEPASTIFHKPIQGEVKSIEMHHEPLEEALPGDNIGFNVRGVSKNDIKRGDVAGHTTNPPTVVRTKDTFKAQIIVLNHPTAITVGYSPVLHAHTAQVPVRFEQLLAKLDPKTGNIVEENPQFIKTGDAAIVILRPMKPVVLEPVKEIPQLGRFAIRDMGMTIAAGMVISIQRGE

Legend:
Assay in all cases: high-speed atomic force microscopy
[1] = target: T1, archaeal ribosomal P-stalk complex …
[2] = target: T1, archaeal ribosomal P-stalk complex …; remark: listed apart in the source
[3] = target: T1, archaeal ribosomal P-stalk complex …; remark: listed apart in the source
[4] = target: T1, archaeal ribosomal P-stalk complex …; remark: listed apart in the source
[5] = target: T1, archaeal ribosomal P-stalk complex …; remark: listed apart in the source

Row | Binder | fold distribution near the P-stalk relative to the opposite control area [1] [fold] | stoichiometry N [2] | fold distribution near the P-stalk relative to the opposite control area [3] [fold] | fold distribution near the P-stalk relative to the opposite control area [4] [fold] | fold distribution near the P-stalk relative to the opposite control area [5] [fold]
1 | B1 | ~4.3 | ≤ 7 aEF2 molecules per P-stalk | 6.6 | – | –
2 | B2 | – | – | – | 4.2 | 2.6
